Legend:
Experiment in all cases: mass spectrometry
Details in all cases: 37 °C (72 h incubation), 50 mM NaCl plus 50 mM buffer, 50 mM MES (pH 5.0-7.5) or 50 mM HEPES (pH 8.0-9.0), folded
[1] = molecular target: His114 (UniProt position 114, KLYLTHIDAEV)
[2] = molecular target: His124 (UniProt position 124, VEGDTHFPDYE)
[3] = molecular target: His141 (UniProt position 141, VFSEFHDADAQ)
[4] = molecular target: His149 (UniProt position 149, DAQNSHSYCFE)
[5] = molecular target: His45 (UniProt position 45, VIMGRHTWESI)
[6] = Ternary complex with folate and NADP+ (DHFR-folate-NADP+; five-fold molar excess of each ligand added during preparation)
[7] = Ternary complex with methotrexate and NADPH (DHFR-MTX-NADPH; five-fold molar excess of each ligand added during preparation)
[8] = Binary complex with methotrexate (DHFR-MTX; five-fold molar excess of MTX added during preparation)

**Q.** What does the source list for “Dihydrofolate reductase (DHFR) (Escherichia coli)”?
**A.** pKa [1, 6]: 7.17 (±0.16); pKa [1, 7]: 6.99 (±0.10); pKa ([1]; apo-DHFR (no ligand)): 6.84 (±0.20); pKa [2, 8]: 7.02 (±0.06); pKa [2, 6]: 7.61 (±0.19); pKa [2, 7]: 7.17 (±0.20); pKa ([2]; apo-DHFR (no ligand)): 7.60 (±0.03); pKa [3, 8]: 8.12 (±0.14); pKa [3, 6]: 8.14 (±0.11); pKa [3, 7]: 8.29 (±0.10); pKa ([3]; apo-DHFR (no ligand)): 8.04 (±0.08); pKa [4, 8]: 6.13 (±0.13); pKa [4, 6]: 6.84 (±0.17); pKa [4, 7]: 6.17 (±0.10); pKa ([4]; apo-DHFR (no ligand)): 6.51 (±0.04); pKa [5, 8]: 7.15 (±0.04); pKa [5, 6]: 7.30 (±0.07); pKa [5, 7]: 7.43 (±0.03); pKa ([5]; apo-DHFR (no ligand)): 6.99 (±0.07)

From PMC3040192
